Assay results reported in patent publication US7387779B2, “Anti-angiogenic proteins and fragments and methods of use thereof” (Beth Israel Deaconess Medical Center, priority 1998, dated 2008).

B1: Tumstatin: NC1 domain of the α3 chain of type IV collagen, residues 1-244 (SEQ ID NO:10) (protein, listed as Homo sapiens)
chain: GLKGKRGDSGSPATWTTRGFVFTRHSQTTAIPSCPEGTVPLYSGFSFLFVQGNQRAHGQDLGTLGSCLQRFTTMPFLFCNVNDVCNFASRNDYSYWLSTPALMPMNMAPITGRALEPYISRCTVCEGPAIAIAVHSQTTDIPPCPHGWISLWKGFSFIMFTSAGSEGTGQALASPGSCLEEFRASPFLECHGRGTCNYYSNSYSFWLASLNPERMFRKPIPSTVKAGELEKIISRCQVCMKKRH
B2: Tum-4: residues 181 to 244 of Tumstatin (SEQ ID NO:25) (protein)
chain: EFRASPFLECHGRGTCNYYSNSYSFWLASLNPERMFRKPIPSTVKAGELEKIISRCQVCMKKRH
modifications: Tum-4 (amino acids 181-244 of SEQ ID NO10)
B3: Tum-2: residues 1 to 132 of Tumstatin (SEQ ID NO:23) (protein)
chain: GLKGKRGDSGSPATWTTRGFVFTRHSQTTAIPSCPEGTVPLYSGFSFLFVQGNQRAHGQDLGTLGSCLQRFTTMPFLFCNVNDVCNFASRNDYSYWLSTPALMPMNMAPITGRALEPYISRCTVCEGPAIAI
modifications: Tum-2 (amino acids 1-132 of SEQ ID NO10)
B4: Tumstatin-44-131: residues 44 to 131 of full-length Tumstatin (SEQ ID NO:33) (protein)
chain: FSFLFVQGNQRAHGQDLGTLGSCLQRFTTMPFLFCNVNDVCNFASRNDYSYWLSTPALMPMNMAPITGRALEPYISRCTVCEGPAIAI
modifications: Tumstatin-45-132 (amino acids 45-132 of SEQ ID NO10)
B5: Tum-1: residues 54 to 244 of Tumstatin, lacking the N-terminal 53 amino acids (SEQ ID NO:22) (protein)
chain: QRAHGQDLGTLGSCLQRFTTMPFLFCNVNDVCNFASRNDYSYWLSTPALMPMNMAPITGRALEPYISRCTVCEGPAIAIAVHSQTTDIPPCPHGWISLWKGFSFIMFTSAGSEGTGQALASPGSCLEEFRASPFLECHGRGTCNYYSNSYSFWLASLNPERMFRKPIPSTVKAGELEKIISRCQVCMKKRH
modifications: Tum-1 (Tumstatin N-53) (amino acids 54-244 of SEQ ID NO10)

Tests used:
C-PAE cells = assay: MTT cell viability assay; assay type: cell-based, bovine
Procedure: The pro-apoptotic activity of Tumstatin N-53 was examined in C-PAE cells. Cell viability was assessed by MTT (3-(4,5-dimethylthiazol-2-yl)-2-,5-diphenyl tetrasolium bromide) assay (Sugiyama, H. et al., 1998, Kidney Int. 54:1188-96). This assay is a quantitative calorimetric analysis for cell survival based on the ability of living cells to cleave the tetrasolium ring in active mitochondria. C-PAE cells (7,000 cells perwell) were plated to a 96-well plate in 10% FCS containing DMEM. The next day, either TNF-α (positive control, 80 ng/ml), or varying concentrations of Tumstatin or Tumstatin N-53 was added to the wells and incubated for 24 hours. MTT solution (5 mg/ml; CHEMICON International, Temecula, Calif., USA) was then added to the wells at a rate of 10 μl/well and incubated at 37° C. for 4 hours. Acid-isopropanol was added and mixed thoroughly. The absorbance was measured in a microplate reader (Bio-Rad, Hercules, Calif., USA) at 590 nm.
The MTT assay was used to evaluate cell viability in C-PAE endothelial cells and WM-164 melanoma cells after treatment with Tumstatin, Tum-1, Tum-2, Tum-3 and Tum-4. The results are shown in FIGS. 34A and 34B, which are a pair of graphs showing the effect of increasing concentration (x-axis) of Tumstatin, Tum-1, Tum-2, Tum-3 and Tum-4 on the cell viability (y-axis) of C-PAE cells (FIG. 34A) and WM-164 cells (FIG. 34B). Each point represents the mean ±the standard error of the mean for triplicate wells.
To further evaluate the mechanism of T3 peptide on endothelial cell proliferation, the effect of T3 peptide on cell cycle progression was analyzed. In the growth arrested and contact inhibited cells (0 hour), 4.1% of cells were in S phase. […] This was true even at a maximal dosage of 100 μg/ml. The effect of the T3 peptide was dose-dependent, however, with the percentage of cells in S phase at 21.4% at 10 μg/ml, and 20.5% at 25 μg/ml. The percentage of cells in G0/G1 phase was 88.3% at 0 hour, 53.4% for the bFGF control, and 57.6%, 57.6% and 71.0% for treatments with T1, T6 and T3 peptide, respectively. […] Apoptotic Activity: Peptides T2, T3, T4, T5 and T6 (10 μg/ml concentration) were tested for their effect of viability of C-PAE cells using the MTT assay, as described in Examples 32 and 36 above. The results are shown in FIG. 43D, which is a histogram showing cell viability as measured at OD595 (y-axis), and treatments with the synthetic peptides (x-axis). […] TNF-α (100 ng/ml) was used to serve as a positive control in inducing endothelial cell apoptosis.
Cell viability was measured by MTT assay, as described above.

WM-164 cells = assay: Melanoma cell proliferation, methylene blue staining; assay type: cell-based, human; conditions: for Relative Cell No. (%) WM-164: 3% FCS, 50 μg/ml recombinant protein
Procedure: In the methylene-blue staining method, 7000 cells were plated into each well of a 96-well plate, and treated as described above. Cells were then counted using the method of Oliver et al. (1989, J. Cell. Sci. 92:513-8). After 48 hours of treatment, all wells were washed with 100 μl of PBS, and the cells fixed with 10% formalin in neutral-buffered saline (Sigma Chemical Co., St. Louis, Mo., USA). The cells were then stained with 1% methylene blue (Sigma) in 0.01M borate buffer, pH 8.5. Wells were washed with 0.01M borate buffer, and the methylene blue extracted from the cells with 0.1N HCl/ethanol, and the absorbance measured in a microplate reader (Bio-Rad, Hercules, Calif., USA) at 655 nm. Polymyxin B (Sigma) at a final concentration of 5 μg/ml was used to inactivate endotoxin (Liu, S. et al., 1997, Clin. Biochem. 30:455-63).
Endothelial cell proliferation was performed by ^3H-thymidine incorporation or methylene blue staining as described above in Example 25. C-PAE cells (passages 2-4) were grown to confluence and kept contact inhibited for 48 hours. 786-O, PC-3 and WM-164 cells were used as non-endothelial controls, and were cultured as described in Example 25, above. HPE (human primary prostate epithelial cells) were cultured in keratinocyte-SFM supplemented with bovine pituitary and recombinant human EGF (Life Technologies/Gibco BRL, Gaithersburg, Md., USA). The melanoma cell line WM-164 was obtained from Dr. Meenhard Herlyn at the Wistar Institute (Philadelphia, Pa., USA), and was cultivated in 78% MCDB-153 medium, 10% L-15 medium, 10% tryptose phosphate broth, 2% FBS, and 50 units/ml insulin, as described by Herlyn et al. (1990, Adv. Cancer Res. 54:213-34).
Proliferation of endothelial cells (C-PAE cells) and WM-164 melanoma cells was assayed by methylene blue staining, as described above in Examples 25 and 34. The results are shown in FIGS. 33A and 33B, which are a pair of graphs showing the effect of increasing concentration (x-axis) of Tumstatin, Tum-1, Tum-2, Tum-3 and Tum-4 on the relative number (y-axis) of C-PAE cells (FIG. 33A) and WM-164 cells (FIG. 33B). […] Tum-4, however, did have anti-proliferative activity in this cell line. […] Only Tum-4 inhibited WM-164 melanoma cells.

Molecule	effect on cell viability (C-PAE cells)	decrease of cell viability (C-PAE cells; 5 μg/ml, 24 hours)	decrease of cell viability (C-PAE cells; 10 μg/ml)	effect on proliferation of WM-164 cells (WM-164 cells)	Relative Cell No. (%) WM-164 (WM-164 cells)	inhibition of WM-164 melanoma cells (WM-164 cells; 50 μg/ml)	ED50, decrease of cell viability (C-PAE cells)
LQRFTTMPFLFCNVNDVCNF [T3]	significantly decrease cell viability						
B1		22.5%	60%	no inhibitory effects	100.0 ± 2.9%		
B2					52.4 ± 3.4 %	46.1%	
B3				not affected	96.2 ± 3.7%		
B4				not observed			12 µg/mL
B5	decreases cell viability in a dose-dependent manner	49.4%		not affected	100.7 ± 2.7%		
